The record followed here is paper PMC4402530, “Unwinding forward and sliding back: an intermittent unwinding mode of the BLM helicase”.

What all share (test): fluorescence anisotropy; 1 mM MgCl2, no ATP listed; 25 mM Tris-HCl pH 7.5 (last digit split in text), 100 mM NaCl, 1 mM MgCl2, 3 mM DTT, 5 nM DNA, 25 C, 5 min equilibration; Hill fit
Common to all, as to conditions: protein: recombinant
Background: Polarisation of emitted light reports the rotation of a fluorescent probe.

Data set [1] addresses BLM642-1290 K1125A (human, UniProt P54132 642-1290, K1125A).
In data set [2] the target is BLM642-1290 T1110G (human, UniProt P54132 642-1290, T1110G).
BLM642-1290 T1110G, sequence (P54132 642-1290 T1110G): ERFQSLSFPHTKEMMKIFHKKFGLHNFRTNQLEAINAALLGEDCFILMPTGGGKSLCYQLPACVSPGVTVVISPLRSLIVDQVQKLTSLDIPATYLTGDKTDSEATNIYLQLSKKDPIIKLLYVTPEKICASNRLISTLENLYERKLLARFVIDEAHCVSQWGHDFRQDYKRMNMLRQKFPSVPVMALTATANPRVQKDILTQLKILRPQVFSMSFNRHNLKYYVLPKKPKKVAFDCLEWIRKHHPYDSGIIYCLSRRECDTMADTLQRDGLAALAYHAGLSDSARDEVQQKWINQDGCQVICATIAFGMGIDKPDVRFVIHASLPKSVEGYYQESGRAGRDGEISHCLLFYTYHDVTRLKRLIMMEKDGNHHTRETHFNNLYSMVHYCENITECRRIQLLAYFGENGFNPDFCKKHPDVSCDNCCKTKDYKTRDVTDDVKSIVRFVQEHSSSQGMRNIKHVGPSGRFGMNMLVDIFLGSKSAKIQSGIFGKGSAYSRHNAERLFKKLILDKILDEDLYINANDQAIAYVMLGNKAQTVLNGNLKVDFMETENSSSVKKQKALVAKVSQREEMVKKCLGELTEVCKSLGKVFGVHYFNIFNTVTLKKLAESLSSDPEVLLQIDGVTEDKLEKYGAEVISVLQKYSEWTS
Data set [3] has as its target BLM642-1290 helicase core, wild type (human, UniProt P54132 642-1290).
Data set [4] concerns the target BLM642-1290 S1121A (human, UniProt P54132 642-1290, S1121A).
Where [5] appears, read: label: 3' fluorescein on F18, blunt.

BLM642-1290 helicase core, wild type, sequence (P54132 642-1290): as the sequence (P54132 642-1290 T1110G) above, with G469T counted along it
BLM642-1290 K1125A, sequence (P54132 642-1290 K1125A): as the sequence (P54132 642-1290 T1110G) above, with G469T, K484A counted along it
BLM642-1290 S1121A, sequence (P54132 642-1290 S1121A): as the sequence (P54132 642-1290 T1110G) above, with G469T, S480A counted along it

B1: F18/F18 bis dsDNA (18 bp) (dsDNA)
DNA 1: GCCTCGCTGCCGTCGCCA
DNA 2: TGGCGACGGCAGCGAGGC
The Kd is the constant that tells how readily two partners part at equilibrium. Regarding B1, the Kd in data set [1] (setting [5]) is 28.6 ± 2.6 nM; in data set [2] (setting [5]) it was 78.2 ± 7.2 nM; in data set [3] (setting [5]) it was 4.6 ± 0.5 nM; in data set [4] (setting [5]) it was 14.9 ± 1.7 nM.

B2: F18 ssDNA (18 nt) (ssDNA)
DNA: GCCTCGCTGCCGTCGCCA
B2: the Kd in data set [1] (label: 3' fluorescein) was 21.3 ± 2.9 nM; in data set [2] (label: 3' fluorescein), 29.7 ± 3.6 nM; in data set [3] (label: 3' fluorescein) it was 17.2 ± 1.6 nM; in data set [4] (label: 3' fluorescein) it was 27.1 ± 3.7 nM.
